Measurements published in PMC11323955.

Target: MBP-MlCYC2A (M. lewisii)
Assay: SPR

Row | Kd [µM] | Substance
1 | 0.968 | GST-bop-1 (GST-tagged MlBOP with the H39L point mutation) (natural protein)
2 | 1.44 | GST-MlBOP (natural protein)
